# Patent US20190247546A1, “METHOD FOR FORMING A FUNCTIONAL NETWORK OF HUMAN NEURONAL AND GLIAL CELLS” (LEIBNIZ-INSTITUT FÜR POLYMERFORSCHUNG DRESDEN E.V., priority 2016, published 2019)
# “Also recorded” adds a separate entry of the source.
# Legend:
# [1] = system: cells embedded in PEG-heparin hydrogel, transfected with calcium sensor; test: Response to neurotransmitter glutamate, calcium sensor fluorescence in hydrogel-embedded cells; type: cell-based, human; details: after addition of glutamate
# From the text: FIG. 5 depicts the results of the measurement of the total fluorescence intensities in the case of addition of the neurotransmitter glutamate. […] The cells in image A2 are embedded in a PEG-heparin hydrogel system before the addition of the neurotransmitter glutamate. Images A3 and A4 show a high magnification of a Gcampf6-transfected cell which is embedded in the PEG-heparin hydrogel system.
# [2] = system: primary human cortical cells (PHCCs); test: Effect of IL-4 on Aβ42 toxicity, PHCCs in star-PEG-HEP hydrogels; type: cell-based
# Experimental: To test whether IL-4 acts in humans in a similar manner as could be previously shown in zebrafish investigations for example, the abovementioned star-PEG-HEP hydrogels containing PHCCs were used. To this end, hydrogels containing embedded PHCCs were prepared and they were incubated with Aβ42, as already described. Each test setup contained a positive (with Aβ42) and a negative control group (without Aβ42) as well as an experimental group with Aβ42 and IL-4. In the experimental group, the star-PEG-HEP gels containing embedded PHCCs were cultured with Aβ42 and, at the same time, in the presence of 100 ng/ml IL-4 in the medium. After a three-week culturing phase, the samples were fixed and immunologically stained with respect to GFAP and SOX2 in order to investigate effects of IL-4 on the neural stem and progenitor cells. The nucleus dye DAPI was used in order to show entire cells. […] It can be concluded that the treatment with interleukin 4 stimulates GFAP-positive cells in relation to proliferation to form more neuronal stem and progenitor cells. IL-4 thus increases the neuroplasticity of the embedded PHCCs despite the presence of neurotoxic Aβ42. […] IL-4 is thus an important candidate for future therapies against Aβ42-mediated neurodegeneration.
# [3] = system: primary human cortical cells (PHCCs); test: Aβ42 neurotoxicity model, PHCCs in 3D star-PEG-heparin hydrogel; type: cell-based
# Experimental: FIG. 11 contains a graphic depiction of the preparation of the PEG-heparin hydrogel for the investigation of the effect of amyloid β 42 peptides (Aβ42) in primary human cortical cells. Cells of the second passage were placed into a Petri dish in a density of 5×10^3 per cm^2 in step 1. For the purposes of the Aβ42 neurotoxicity model, cells of the second passage were likewise placed in a Petri dish in a density of 5×10^3/cm^2 and incubated for 48 hours with 2 μM Aβ42 (step 1′).
# After 48 hours, the cells were harvested and resuspended in phosphate-buffered saline solution (PBS) at a concentration of 8×10^6 cells per ml in a step 2. Then, the same volume of heparin solution (45 μg/μl in PBS) was added and the two were mixed to give a final concentration of 4×10^6 cells/ml in a step 3. In the case of the coating of the extracellular environment of the cells embedded in the PEG-heparin hydrogel system with […], a mixture of Aβ42 peptide in a concentration of 40 μM was added in step 3′.
# To cast a gel, the cell solution, PBS and heparin in step 3 were mixed with the same volume of star-PEG. […] The reactions for gel formation last two minutes. After the casting, the gels were placed into 24-well culture plates, with each well containing a culture medium. To culture and to incubate the gels, a ratio of 5% CO2/95% air at 37° C. was used. Gels can be cultured until the desired time point.
# Amyloid β 42 peptide, a misfolded protein relevant to Alzheimer's disease, was also used in order to model its toxicity and its effects on neuronal networks. The method according to the invention using a three-dimensional hydrogel system for culturing can, in this way, also be used as a model for neurodegenerative diseases. […] To investigate whether amyloid β 42 (Aβ42) influences the neuronal network, cultures were generated by treating the cells with Aβ42 before introduction into the hydrogel system (intracellular Aβ42) or incubating the hydrogels with Aβ42 before introduction of the cells (extracellular Aβ42). […] Furthermore, the three-dimensional hydrogel system can be used as a practical screening platform for testing compounds which might restore the neurogenic capacity of human stem cells and the formation of neuronal networks even in the presence of Aβ42.
# To use gels which were pretreated with amyloid β 42 (Aβ42), the cells were incubated with 2 μM Aβ42 for 48 hours prior to the cell collection from the culture vessel and prior to the embedding of the cells in the hydrogel. To generate a gel environment which contains Aβ42, the cells were first dissolved in 4 μl of 100 μM Aβ42 peptide in PBS. 6 μl of the heparin solution (0.448 mg of HEP-HM6 dissolved in 6 μl of PBS) and 10 μl of the starPEG-MMP solution (0.347 mg of starPEG-MMP dissolved in 10 μl of PBS) were added and, as described above, mixed. In this gel mixture, the concentration of Aβ42 is 20 μM and the concentration of the cells is 2×10^6 cells per ml.
# To use gels which were pretreated with amyloid β 42 (Aβ42), the cells were incubated with 2 μM Aβ42 for 48 hours prior to the cell collection from the culture vessel and prior to the embedding of the cells in the hydrogel.
# All hydrogels were fixed with ice-cold paraformaldehyde and incubated at room temperature for 1.5 h, followed by a wash in PBS overnight at 4° C. […]
# For the hydrogels, fluorescence recordings were carried out using a Leica SP5 inverted confocal and multiphoton microscope. […]
# [4] = Aβ42-treated gels compared with control gels
molecule,measurement,setting,value
N[C@@H](CCC(=O)O)C(=O)O [glutamate],fluorescence signal of calcium sensor (intracellular calcium influx),[1],increased fluorescence signal; also recorded: increase in the intracellular calcium level
"Aβ42: Amyloid β 42 peptide, a misfolded protein relevant to Alzheimer's disease",cell count (GFAP-positive and SOX2-positive cells),"[2]; Aβ42-treated cultures vs untreated control, three-week culture",strong decline
same,number of branches per network,[3]; [4],significantly lower
same,number of cells,[3]; [4],significantly reduced
same,number of networks,[3]; [4],significantly reduced
same,effect on axons,[3]; Aβ42 treatment,dystrophy of axons
same,neuronal network formation,"[3]; intracellular and extracellular Aβ42, compared with control gels",significant impairment
"IL-4: interleukin 4 (protein, UniProt P05112 25-153, looked up) Interleukin-4: HKCDITLQEIIKTLNSLTEQKTLCTELTVTDIFAASKNTTEKETFCRAATVLRQFYSHHEKDTRCLGATAQQFHRHKQLIRFLKRLDRNLWGLAGLNSCPVKEANQSTLENFLERLKTIMREKYSKCSS",proliferation of human neuronal stem cells,[2]; Aβ42 plus 100 ng/ml IL-4,activates the proliferation
same,cell count,"[2]; Aβ42 plus 100 ng/ml IL-4 in the medium, three-week culture",altogether comparable with the control cultures without Aβ42 treatment
